Data as given in PMC4880302.

Assays:
[1] = biological target: wild-type HMPV F protein (soluble, secreted, with C-terminal GCNt trimerization domain) (human metapneumovirus, B2 strain); test: SPR; BiOptix 404pi; F proteins captured on NiHC1000m chip through their C-terminal His tag to 120 RU; Fab injected at 300 to 0.14 nM, 100 ul/min; 10 mM HEPES pH 7.2, 150 mM NaCl, 0.005% Tween 20, 50 uM EDTA; simple Langmuir model
[2] = biological target: wild-type HMPV F protein (soluble, secreted, with C-terminal GCNt trimerization domain) (human metapneumovirus, B2 strain); test: SEC; gel filtration of the purified F proteins alone (Superdex-200, 25 mM sodium phosphate pH 7.4, 100 mM NaCl)
[3] = biological target: wild-type HMPV F protein (soluble, secreted, with C-terminal GCNt trimerization domain) (human metapneumovirus, B2 strain); test: negative-stain EM; purified F proteins on carbon-coated copper grids, 2% uranyl formate; unheated and heated to 50°C
[4] = biological target: DS-7 Fab (anti-HMPV F neutralizing antibody); test: SPR; as a1 (ProteOn, Fab immobilised, F injected, bivalent analyte model), but HMPV F proteins heated to 50°C for 30 minutes (post-fusion form)
[5] = biological target: DS-7 Fab (anti-HMPV F neutralizing antibody); test: SPR; Bio-Rad ProteOn XPR36; biotinylated antibodies (Fabs) immobilised on NLC chip at 80-300 RU; unheated HMPV F injected at 500, 166.7, 55.5, 18.5, 6.2, 0 nM, 100 ul/min; 20 mM NaPO4 pH 7.4, 100 mM NaCl, 10 mM imidazole, 0.005% Tween 20; bivalent analyte model

DS-7 Fab (anti-HMPV F neutralizing antibody)
Kd [1]: 0.3 nM
koff [1]: 0.000197 s⁻¹
kon [1]: 684000 M⁻¹ s⁻¹
t1/2 [1]: 59 min

wild-type HMPV F protein (soluble, secreted, with C-terminal GCNt trimerization domain) (natural protein)
stoichiometry N [2]: 3
stoichiometry N [3]: 3
Kd [4]: 2.8 nM
koff [4]: 0.000258 s⁻¹
kon [4]: 95700 M⁻¹ s⁻¹
t1/2 [4]: 45 min
Kd [5]: 0.83 nM
koff [5]: 0.00012 s⁻¹
kon [5]: 147000 M⁻¹ s⁻¹
t1/2 [5]: 96 min
